Source: patent publication US20250340654A1 (INTERVET, published 2025)

T1: Canine IL-31RA ECD-10His (canine, biotin-labeled in the Octet assay (site not stated))
T1 construct: The ELISA and Octet protocols say only 'IL-31RA' or 'canine IL-31RA'; also called cIL-31RA; canine IL-31 receptor alpha extracellular domain, HIS-tagged
T1 chain: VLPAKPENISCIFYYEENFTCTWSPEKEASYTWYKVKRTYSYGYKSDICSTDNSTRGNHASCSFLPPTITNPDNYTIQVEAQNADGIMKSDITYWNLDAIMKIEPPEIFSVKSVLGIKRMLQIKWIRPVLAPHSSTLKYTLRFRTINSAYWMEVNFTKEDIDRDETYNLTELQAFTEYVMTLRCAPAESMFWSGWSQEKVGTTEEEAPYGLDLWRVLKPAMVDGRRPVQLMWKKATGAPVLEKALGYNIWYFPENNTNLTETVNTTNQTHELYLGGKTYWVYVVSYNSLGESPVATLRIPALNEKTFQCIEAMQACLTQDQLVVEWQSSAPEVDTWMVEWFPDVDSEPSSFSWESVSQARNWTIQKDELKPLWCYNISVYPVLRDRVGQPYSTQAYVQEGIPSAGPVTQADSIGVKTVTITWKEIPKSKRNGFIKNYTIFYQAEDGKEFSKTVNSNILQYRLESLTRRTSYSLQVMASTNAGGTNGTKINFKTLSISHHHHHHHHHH

B1: 85C10 (antibody, V domains shown)
VH: EFQLQQSGPELVKPGASVKISCKASGYSFTDYSINWVKQSNGKSLEWIGVINPNYGTSSHNQKFKGKATMTVDQSSSTAYMQLNSLTSEDSAVYYCARALDDYYFYWYFDVWGIGTTVTVSS
VL: DVVMTQTPLSLPVSLGDQASISCRSSQSLVHTNGNTYLHWYLQKPGQSPKLLIYKVSNRFSGVPDRFSGSGSGTDFTLKISRVEAEDLGVYFCSQTTHVPLTFGAGTKLELK
notes: Mouse monoclonal antibody from a hybridoma; also called mouse mAb 85C10
B2: 224G3 (antibody, V domains shown)
VH: EVQLVESGGDLVKPGGSLKLSCAASGFTFSSYGMSWVRQTPDKRLEWVATISNGGSYTYYPDSVKGRFTISRDNAKNTLYMQMSSLKSEDTAMYYCARNEPPDYWGQGTSVTVSS
VL: QIVLTQSPAIMSASLGERVTMTCTASSSVGSSYLHWYQQKPGSSPKLWIYDTSNLASGVPVRFSGSGSGTSYSLTISSMEAEDAATYYCHQYHRSPYTFGGGTKLEIK
notes: Mouse monoclonal antibody from a hybridoma; also called mouse mAb 224G3
B3: c218D9VH3VL2 (antibody, V domains shown)
VH: EVTLQESGPGLVKPSQTLSLTCSFSGFSLSTFGRGVGWIRQRPGRGLEWMGHIWWDDDKYYNPALKSRLSITKDTAKNQFSLQLSSMTTEDTAVYYCARIAGGLRRAPYAMDSWGQGTLVTVSS
VL: DIVMTQTPLSLSVSPGETASISCRASENIYSSLAWFRQKPGQSPQLLIYAATNLADGVPDRFSGSGSGTDFTLRISRVEADDTGVYYCQHFRDTPPTFGQGTKLEIKR
notes: Caninized antibody; chains tied by name to c218D9VH3-cIgGBm and c218D9VL2-cCK; also called c218D9VH3L2
B4: c218D9VH4VL2 (antibody, V domains shown)
VH: EVTLQESGPGLVKPSQTLSLTCSFSGFSLSTFGRGVGWIRQRPGRGLEWMGHIWWDDDKYYNPALKSRLSITKDTAKNQVFLQLSSMTTEDTAVYYCARIAGGLRRAPYAMDSWGQGTLVTVSS
VL: DIVMTQTPLSLSVSPGETASISCRASENIYSSLAWFRQKPGQSPQLLIYAATNLADGVPDRFSGSGSGTDFTLRISRVEADDTGVYYCQHFRDTPPTFGQGTKLEIKR
notes: Caninized antibody; chains tied by name to c218D9VH4-cIgGBm and c218D9VL2-cCK; also called c218D9VH4L2
B5: c218D9VH3VL3 (antibody, V domains shown)
VH: EVTLQESGPGLVKPSQTLSLTCSFSGFSLSTFGRGVGWIRQRPGRGLEWMGHIWWDDDKYYNPALKSRLSITKDTAKNQFSLQLSSMTTEDTAVYYCARIAGGLRRAPYAMDSWGQGTLVTVSS
VL: DIVMTQTPLSLSVSPGETASISCRASENIYSSLAWFRQKPGQSPQLLVYAATNLADGVPDRFSGSGSGTDYTLRISRVEADDTGVYYCQHFRDTPPTFGQGTKLEIKR
notes: Caninized antibody; chains tied by name to c218D9VH3-cIgGBm and c218D9VL3-cCK; also called c218D9VH3L3
B6: c218D9VH4VL3 (antibody, V domains shown)
VH: EVTLQESGPGLVKPSQTLSLTCSFSGFSLSTFGRGVGWIRQRPGRGLEWMGHIWWDDDKYYNPALKSRLSITKDTAKNQVFLQLSSMTTEDTAVYYCARIAGGLRRAPYAMDSWGQGTLVTVSS
VL: DIVMTQTPLSLSVSPGETASISCRASENIYSSLAWFRQKPGQSPQLLVYAATNLADGVPDRFSGSGSGTDYTLRISRVEADDTGVYYCQHFRDTPPTFGQGTKLEIKR
notes: Caninized antibody; chains tied by name to c218D9VH4-cIgGBm and c218D9VL3-cCK; also called c218D9VH4L3
B7: c51F8VH4VL7 (antibody, V domains shown)
VH: EVQLVQSGAEVVKPGASVKVSCTASGFNIKNTFIHWVRQRPGAGLDWIGRIDPANGNTKYAPKFQGRATLTADTSTNTAYMQLSSLRAGDIAVYYCARYYYVSSYFDVWGTGTLVTVSS
VL: DIVMTQTPLSLSVSPGETASISCKASQSVTNDVTWFRQKPGQSPKLLIYSASNRYTGVPDRFSGSGSGTDFTLRISTVEADDTGVYYCQQDYSSPWTFGQGTKLEIKR
notes: Caninized antibody; chains tied by name to c51F8VH4-cIgGBm and c51F8VL7-cCK; also called c51F8VH4L7
B8: Chimeric 218D9 (antibody, V domains shown)
VH: QVTLKESGPGILQPSQTLSLTCSFSGFSLSTFGRGVGWIRQPSGKGLDWLTHIWWDDDKYYNPALKSRLTISKDTSKNQVFLKIANVDTADTATYYCARIAGGLRRAPYAMDSWGQGTSVTVSS
VL: DIQMTQSPASLSVSVGETVTITCRASENIYSSLAWYQQKQGKSPQLLVYAATNLADGVPSRFSGSGSGTQYSLKINSLQSEDSGNYYCQHFRDTPPTFGGGTKLEIK
notes: canine constant regions not specified; also called mouse-canine chimeric 218D9 antibody
B9: 218D9 (antibody, V domains shown)
VH: QVTLKESGPGILQPSQTLSLTCSFSGFSLSTFGRGVGWIRQPSGKGLDWLTHIWWDDDKYYNPALKSRLTISKDTSKNQVFLKIANVDTADTATYYCARIAGGLRRAPYAMDSWGQGTSVTVSS
VL: DIQMTQSPASLSVSVGETVTITCRASENIYSSLAWYQQKQGKSPQLLVYAATNLADGVPSRFSGSGSGTQYSLKINSLQSEDSGNYYCQHFRDTPPTFGGGTKLEIK
notes: Mouse monoclonal antibody from a hybridoma; also called mouse mAb 218D9
B10: 209G5 (antibody, V domains shown)
VH: EVQLQQSVAELVRPGASVKLSCTASGFNIKNTYMHWVKERPEQGLEWIGRIDPANGNSKYAPKFQGKATITTDTSSNTAYLQLSSLTSEDTAIYYCARYYYVSSHFDVWGTGTTVTVSS
VL: SIVMTQTPKFLLVSAGDRVTITCKASQSVTNDVTWYQQKPGQSPKLLIYYASNRYTGVPDRFTGSGYGTDFTFTISTVQAEDLAVYFCQQDYSSPFTFGSGTKLEIK
notes: Mouse monoclonal antibody from a hybridoma; also called mouse mAb 209G5

Columns and labels:
[1] = target: T1, Canine IL-31RA ECD-10His; test: BLI (Octet HTX), biotin-labeled canine IL-31RA on SA biosensors, 1:1 fit
Procedure: These constants reflect the binding affinity of the individual monoclonal antibodies for canine IL-31 RA.
(§1) All kinetics measurements were performed by Octet HTX using SA biosensors and Data Acquisition 12.0 software. A biotin-labeled antigen (canine IL-31RA) was loaded onto the pre-rehydrated SA biosensors for 120s at a concentration of 1 μg/mL. Next, the biosensors were placed into Octet Kinetics Buffer (PBS+0.02% Tween 20, 0.1% BSA) for the blocking phase for 120s. Then, for the association phase, antigen loaded biosensors were placed into 2-fold serial dilutions from 100 nM down to 3.13 nM of anti-IL-31RA monoclonal antibody in Octet Kinetics Buffer for 300s. The last well was buffer alone and that sensor was used for reference sensor subtraction. Finally, the biosensors were placed into Octet Kinetics Buffer for the dissociation phase for 300s. Analysis was performed using Data Analysis 12.0 software and curves were fitted using a 1:1 binding model.

[2] = target: T1, Canine IL-31RA ECD-10His; test: BLI (Octet); end of the range tied to 85C10 by Table 2
Procedure: as §1

[3] = target: T1, Canine IL-31RA ECD-10His; test: BLI (Octet); end of the range tied to 224G3 by Table 2
Procedure: as §1

[4] = target: T1, Canine IL-31RA ECD-10His; test: ELISA on coated canine IL-31RA, anti-canine IgG Fc-HRP (Example 11), the unit is that of the x axis 'Ab Log Conc. (ng/mL)'
Procedure: 1. Coat 200 ng/well of IL-31RA on an immunoplate and incubate the plate at 4° C. overnight. [0257] 2. Wash the plate 3 times with phosphate buffered saline (PBS) containing 0.05% Tween 20 (PBST). […] 3. Block the plate with 0.5% bovine serum albumin (BSA) in PBS for 45-60 min at room temperature. [0259] 4. Wash the plate 3 times with PBST. [0260] 5. Three-fold dilute the caninized antibody in each column or row of dilution plate starting at 0.3 μg/mL. [0261] 6. Transfer the diluted caninized antibody into each column or row of the immunoplate, and incubate the plate for 45-60 min at room temperature. [0262] 7. Wash the plate 3 times with PBST. [0263] 8. Add 1:4000 diluted horseradish peroxidase labeled anti-canine IgG Fc into each well of the plate, and then incubate the plate for 45-60 min at room temperature. [0264] 9. Wash the plate 3 times with PBST. [0265] 10. Add 3,3′,5,5′-tetramethylbenzidine (TMB) Substrate into each well of the plate, and incubate the plate for 10 to 15 min at room temperature to develop the color. [0266] 11. Add 100 μL 1.5 M phosphoric acid into each well to stop the reaction. Read plate at 450 nm with 540 nm reference wavelength.
As depicted in FIGS. 7A-7E, the caninized antibodies were tested for their reactivity to canine IL-31RA.

[5] = target: T2, canine IL-31 receptor complex (IL-31RA and OSMR) on Ba/f3-OI cells (canine); test: cell-based or functional assay
[6] = target: T2, canine IL-31 receptor complex (IL-31RA …); test: cell-based or functional assay; remark: listed apart in the source
[7] = target: T1, Canine IL-31RA ECD-10His; test: BLI (Octet), biotin-labeled canine IL-31RA on SA biosensors
Procedure: as §1
Two of the top blocking antibodies: 51F8 and 218D9, had KDs of about 0.2 nM and about 0.07 nM respectively (see, Table 5B below).

[8] = target: T2, canine IL-31 receptor complex (IL-31RA …); test: cell-based or functional assay; remark: listed apart in the source

Binder | Kd [1] [nM] | koff [1] [s⁻¹] | kon [1] [M⁻¹ s⁻¹] | Kd [2] [nM] | Kd [3] [nM] | EC50 [4] [ng/mL] | IC50: inhibition of IL-31 mediated STAT-3 phosphorylation in Ba/f3-OI cells (AlphaLISA p-STAT3), the unit is that of the x axis 'Antibody Log Conc. (nM)' [5] [nM] | IC50, inhibition of IL-31 mediated STAT-3 phosphorylation in Ba/f3-OI cells [6] [nM] | Kd [7] [nM] | koff [7] [s⁻¹] | kon [7] [M⁻¹ s⁻¹] | IC50 (read off the curve): inhibition of IL-31 mediated STAT-3 phosphorylation in Ba/f3-OI cells [8] [ng/mL]
B1 | 0.851 | 0.000363 | 427000 | 0.85 |  |  |  |  |  |  |  | 
B2 | 0.000964 | 1.08e-06 | 1.12e+06 |  | 0.001 |  |  |  |  |  |  | 
B3 |  |  |  |  |  | 4.29 | 226 | ~230 | 0.528 | 0.000338 | 641000 | 
B4 |  |  |  |  |  | 4.1 | 8.27 | ~8.3 | 0.305 | 0.000165 | 541000 | 
B5 |  |  |  |  |  | 3.22 | 2.97 | ~2.5 | 0.0416 | 2.75e-05 | 661000 | 
B6 |  |  |  |  |  | 3.58 | 2.5 | ~2.9 | 0.0447 | 2.69e-05 | 601000 | 
B7 |  |  |  |  |  | 11.3 |  |  | 1.23 | 0.000512 | 416000 | 
B8 |  |  |  |  |  | 3.15 | 2.24 | ~2.2 | 0.0698 | 4.63e-05 | 664000 | 
B9 | 0.0698 | 4.63e-05 | 664000 |  |  |  |  |  |  |  |  | ~2000
B10 | 0.131 | 4.87e-05 | 370000 |  |  |  |  |  |  |  |  | ~2000
